Here are results for six molecules from patent publication US20190276521A1 (Kyowa Kirin, published 2019).

The target of assay [1] is histidine tag-conjugated soluble CD16a (V) (human) (UniProt P08637). Put plainly: ELISA, soluble CD16a-His captured by anti-Tetra-His antibody, anti-human IgG-HRP detection.
Assay [2] concerns the target full-length CD16a (V) expressed on CHO/DG44 cells (human) (UniProt P08637). Put plainly: flow cytometry competition on CD16a-expressing CHO/DG44 cells; competitor: anti-DNP antibody complexed with DNP-BSA-biotin.
In assay [3] the target is T1, human haptoglobin (human Hp) (human, UniProt P00738 19-160; P00738 162-406).
T1 sequence 1: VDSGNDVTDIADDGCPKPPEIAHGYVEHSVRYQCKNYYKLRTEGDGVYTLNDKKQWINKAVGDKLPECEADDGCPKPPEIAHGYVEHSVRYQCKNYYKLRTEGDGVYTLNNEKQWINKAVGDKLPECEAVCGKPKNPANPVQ
T1 sequence 2: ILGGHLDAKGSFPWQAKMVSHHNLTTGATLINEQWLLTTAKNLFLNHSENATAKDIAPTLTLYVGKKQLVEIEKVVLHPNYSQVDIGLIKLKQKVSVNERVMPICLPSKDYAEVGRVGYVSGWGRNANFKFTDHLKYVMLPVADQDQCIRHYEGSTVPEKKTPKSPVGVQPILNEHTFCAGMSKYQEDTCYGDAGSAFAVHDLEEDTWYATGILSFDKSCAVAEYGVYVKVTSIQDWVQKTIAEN
In words: competitive ELISA on plate-coated human Hp (-: absorbance less than 0.5); competitor: anti-Hp polyclonal antibody. As to the method: The immobilized solution was removed, 1% BSA-PBS was then dispensed into the plate at 100 μL/well, and the plate was left to stand for 1 hour at room temperature for blocking and washed 3 times with PBST.
The plate was washed 3 times of PBST, and ABTS was dispensed into the plate at 50 μL/well for developing color. At a point in time when color was appropriately developed, 1% SDS was dispensed into the plate at 50 μL/well, and by using a plate reader, the absorbance at a sample wavelength of 415 nm and a reference wavelength of 490 nm was measured.

Assay [4] deals with T2, Chimera A (human with bovine residues, UniProt P00738 19-406).
T2 construct: α and β linked by a disulfide bond; Expi293F; also called human Hp/bovine Hp chimeric protein
T2 chain: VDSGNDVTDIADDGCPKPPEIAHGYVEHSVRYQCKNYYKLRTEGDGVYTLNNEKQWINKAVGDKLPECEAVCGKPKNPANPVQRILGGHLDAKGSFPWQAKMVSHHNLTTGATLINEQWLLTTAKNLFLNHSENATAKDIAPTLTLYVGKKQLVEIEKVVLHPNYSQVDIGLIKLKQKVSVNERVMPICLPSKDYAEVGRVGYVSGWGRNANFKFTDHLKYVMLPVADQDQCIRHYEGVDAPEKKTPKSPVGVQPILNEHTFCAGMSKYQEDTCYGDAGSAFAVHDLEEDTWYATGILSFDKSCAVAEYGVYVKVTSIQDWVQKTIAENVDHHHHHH
In words: ELISA on plate-coated antigen (-: absorbance ratio less than 0.5). As to the method:
(§1) The chimeras A to F, the recombinant human Hp and bovine Hp were immobilized in a 96-well plate based on the method described in Example 5, and blocking was performed.
(§2) The plate was washed 3 times with PBST, Goat anti Human IgG (H&L)-HRP or Rabbit anti-Mouse IgG-HRP diluted with 1% BSA-PBS was dispensed into the plate at 50 μL/well, and the plate was left to stand for 1 hour at room temperature. The color development and the absorbance measurement to be carried out thereafter were performed based on the method described in Example 5. By regarding the absorbance of the well, in which each of the anti-Hp antibodies was reacted with the recombinant human Hp, as 1, a ratio of the absorbance, in which the sample was reacted, to the aforementioned absorbance was calculated.

For assay [5], the target named is T1, human haptoglobin (human Hp). In words: SEC-MALS of antibody 0.5 mg/mL mixed with human Hp 1.3 mg/mL, 16 hours at 37° C. As for the experimental part: In order to check whether the anti-Hp antibodies have bound to the human Hp and formed a immune complex, analysis was performed by gel filtration chromatography (Size Exclusion Chromatography, SEC) (column; BioSep SEC-s4000, 7.8×300 mm, Phenomenex Inc.) using HPLC (Prominence, Shimadzu Corporation).
The column was equilibrated using a mobile phase [50 mmol/L phosphate buffer (pH 7.0, 500 mmol/L NaCl)], the anti-Hp antibodies and the human Hp (Japan Blood Products Organization) were diluted with PBS and mixed together such that the concentrations of the anti-Hp antibodies and the human Hp became 0.5 mg/mL and 1.3 mg/mL, respectively, and the mixed solution was left to stand for 16 hours at 37° C.
The components contained in […] of the mixed solution were separated at a flow rate of 0.5 mL/min. Then, for each peak detected at a wavelength of 280 nm, a molecular weight was calculated using a maximum value of scattering intensity detected by a multi angle light scattering (MALS) detector (miniDAWN TREOS, Wyatt Technology Corporation).

Assay [6] concerns the target T3, Chimera F (human with bovine residues, UniProt P00738 19-406).
T3 construct: Expi293F; also called human Hp/bovine Hp chimeric protein
T3 chain: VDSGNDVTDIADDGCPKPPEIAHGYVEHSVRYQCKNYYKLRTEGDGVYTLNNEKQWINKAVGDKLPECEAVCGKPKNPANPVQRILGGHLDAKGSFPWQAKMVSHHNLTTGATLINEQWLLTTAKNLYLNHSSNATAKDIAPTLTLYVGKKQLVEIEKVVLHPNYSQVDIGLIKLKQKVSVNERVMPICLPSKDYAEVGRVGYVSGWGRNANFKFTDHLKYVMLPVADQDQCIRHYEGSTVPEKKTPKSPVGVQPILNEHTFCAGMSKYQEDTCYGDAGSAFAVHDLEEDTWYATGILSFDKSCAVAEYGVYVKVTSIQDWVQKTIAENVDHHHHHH
In words: ELISA on plate-coated antigen (-: absorbance ratio less than 0.5). As for the experimental part: as §1, §2

Sequence of histidine tag-conjugated soluble CD16a (V) (human) (P08637 other isoform, or with tags, fused parts or gaps limits assumed): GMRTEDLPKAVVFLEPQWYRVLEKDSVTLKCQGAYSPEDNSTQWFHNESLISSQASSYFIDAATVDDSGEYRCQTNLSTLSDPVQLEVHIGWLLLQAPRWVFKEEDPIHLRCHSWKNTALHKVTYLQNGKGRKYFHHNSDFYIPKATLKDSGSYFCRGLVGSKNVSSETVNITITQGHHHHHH
Sequence of full-length CD16a (V) expressed on CHO/DG44 cells (human) (P08637 17-254 F176V limits assumed): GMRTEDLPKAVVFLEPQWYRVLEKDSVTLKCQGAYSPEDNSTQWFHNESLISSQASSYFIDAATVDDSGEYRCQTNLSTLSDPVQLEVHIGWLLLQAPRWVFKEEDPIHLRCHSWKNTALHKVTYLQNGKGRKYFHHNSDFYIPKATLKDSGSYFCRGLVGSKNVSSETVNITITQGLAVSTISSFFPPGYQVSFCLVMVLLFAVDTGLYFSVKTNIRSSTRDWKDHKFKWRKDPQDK

On to “Intravenous immunoglobulin (IVIG) (antibody)”, for which the EC50 in assay [1] came out at 1.06 µg/mL. The same molecule came in with an IC50 in assay [2] of 540 µg/mL.

B1: anti-Hp antibody #96-6 (antibody, V domains shown)
VH: EVQLLESGGGLVQPGGSLRLSCEASGSSVSSHFMTWVRQSPGKGLEWVSSISPNPAYTYYANSVKGRFTISRDNSKNMLYLQMNDLRAEDTARYYCARRSDFDTWGQGTMLTVSS
VL: DIQMTQSPSAMSASVGDRVTITCRASRYIGKDLAWFQQKPGEVPKRLIYDASSLQSGVPSRFSGSGSGTEFTLTVSNLQPEDLGTYYCQHYYTFPLTFGPGTKVDIK
notes: Recombinant human IgG1/kappa antibody; also called clone #96-6; Labeled #96-6
Regarding B1, the EC50 in assay [1] was determined as 0.473 µg/mL. Also, in assay [3], the “absorbance (415 nm, reference 490 nm)” value is less than 0.5.

B2: anti-Hp antibody #6 (antibody, V domains shown)
VH: EVQLLESGGGLVQPGGSLKLSCVASEFTFSNYAMSWVRQAPGKGLEWVSTFSSGGSRTFYADSVRGRFTISRDNSNNMLFLQIDSLRAEDTAVYYCAKAQFVGHWAQYNYWGQGALVTVSS
VL: DIQMTQSPSSLSASVGDRVAITCRASQGIRNYLAWYQQKPGKVPKLLIYDAFILQSGVPSRFSGSGSGTDFTLTISSLQPEDVATYYCQKSDSPPLTFGGGTKVEIK
notes: Recombinant human IgG1/kappa antibody; also called clone #6; #6 antibody
The molecule B2 came in with an EC50 in assay [1] of 0.805 µg/mL. Besides, the “absorbance (415 nm, reference 490 nm)” value in assay [3] was less than 0.5.

B3: anti-Hp antibody #105 (antibody, V domains shown)
VH: QVHLQQWGAGLLKPSETLSLTCNVYGSSLSQYFWNWIRQPPGKGLEWMGRITSGGSTNYNPSLESRVTIIVDTFKNQFSLKLVSVTAADTAVYYCARGPFVEGAAPTVLGTGFSIWGQGTMVTVSS
VL: EIVLTQSPGTLSLSPGERATLSCRASQSVNNNYLAWYQQKPGQAPRLLIYDASKRATGIPDRFSGSGSGTDFTLTISRLEPEDFAVYYCQQYGHSRPYTFGQGAKLEIK
notes: Recombinant human IgG1/kappa antibody
On to B3, for which the “absorbance ratio to recombinant human Hp” value in assay [4] was less than 0.5. Besides, in assay [1], the EC50 amounted to 0.405 µg/mL. Further, the “absorbance (415 nm, reference 490 nm)” value in assay [3] was less than 0.5.

B4: anti-Hp antibody #4 (antibody, V domains shown)
VH: EVHLLESGGGLVQPGGSLRLSCQASGFTFNSNAMSWVRRAPGKGLEWISSIGANTNYIYTADSVKGRFTISRDNSKNTLYLQMNSLRAEDTAAYYCAKNRDRYSYDAWSVWGQGTTVTVSS
VL: DIQMTQSPSTLSASVGDRVTITCRASQSIDIWLAWYQQKPGKAPKLLIYEASSLESEVPSRFSGSGSGTEFTLTISSLQPDDFATYYCQAYNSNYPYAFGQGTNLEIK
notes: also called clone #4; #4 antibody
Consider B4, for which the EC50 in assay [1] is 1.99 µg/mL. In assay [5], the “Peak molecular weight of immune complex” value stood at 341000.

B5: anti-Hp antibody #27 (antibody, V domains shown)
VH: EQQLVESGGGLVQPGRSLTLSCVASGFTFGDYAMGWVRQAPGKGLEWVSSISSDALYKGYVDSVKGRFTVSRDNAKNSLYLQMDNLRTEDTAFYYCTKDLRSGNFGQYGDWGQGTLVTVSS
VL: AIQMTQSPSSLSASVGDRVTITCRASQGIGSDLTWYQQEPGKAPKLLIYAASTLQSGVPSRFSGGGSGTDFTLTISSLQPEDAATYYCLQSHGYPLTFGQGTKLEIK
notes: Recombinant human IgG1/kappa antibody; also called clone #27; #27 antibody
In the case of B5, in assay [6], the “absorbance ratio to recombinant human Hp” value was less than 0.5. For the same molecule, the EC50 in assay [1] is 0.763 µg/mL. The “Peak molecular weight of immune complex” value in assay [5] was found to be 523000. The IC50 in assay [2] was found to be 238 µg/mL.
